What all share (assay): ELISA
Assay [1] has as its target Apolipoprotein E3 (LipoE3) (Homo sapiens, UniProt P02649).
Assay [2] addresses Apolipoprotein E4 (LipoE4) (Homo sapiens, UniProt P02649).
Assay [3] has as its target Apolipoprotein E2 (LipoE2) (Homo sapiens, UniProt P02649).

Chain of Apolipoprotein E3 (LipoE3) (P02649 19-317): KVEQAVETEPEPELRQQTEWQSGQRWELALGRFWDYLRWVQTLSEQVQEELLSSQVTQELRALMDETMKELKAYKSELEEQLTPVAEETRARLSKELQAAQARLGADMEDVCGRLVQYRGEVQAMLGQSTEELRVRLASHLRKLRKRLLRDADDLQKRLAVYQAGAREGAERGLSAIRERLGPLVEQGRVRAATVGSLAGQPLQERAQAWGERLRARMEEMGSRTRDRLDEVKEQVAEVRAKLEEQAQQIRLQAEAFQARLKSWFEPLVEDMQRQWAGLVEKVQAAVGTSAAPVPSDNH
Chain of Apolipoprotein E2 (LipoE2) (P02649 19-317): as above
Chain of Apolipoprotein E4 (LipoE4) (P02649 19-317): as above

B1: Haptoglobin (phenotype 1-1) (protein)
chain 1: VDSGNDVTDIADDGCPKPPEIAHGYVEHSVRYQCKNYYKLRTEGDGVYTLNDKKQWINKAVGDKLPECEADDGCPKPPEIAHGYVEHSVRYQCKNYYKLRTEGDGVYTLNNEKQWINKAVGDKLPECEAVCGKPKNPANPVQ
chain 2: ILGGHLDAKGSFPWQAKMVSHHNLTTGATLINEQWLLTTAKNLFLNHSENATAKDIAPTLTLYVGKKQLVEIEKVVLHPNYSQVDIGLIKLKQKVSVNERVMPICLPSKDYAEVGRVGYVSGWGRNANFKFTDHLKYVMLPVADQDQCIRHYEGSTVPEKKTPKSPVGVQPILNEHTFCAGMSKYQEDTCYGDAGSAFAVHDLEEDTWYATGILSFDKSCAVAEYGVYVKVTSIQDWVQKTIAEN
modifications: ApoE3 isoform, lecithin liposome-associated
Usually Kd stands for the free concentration of one partner at which half of the binding sites on the other are occupied at equilibrium, for simple one-to-one binding. A lower Kd goes with a tighter complex. B1 returned a Kd in assay [1] of 59.6 nM.

B2: Haptoglobin (phenotype 1-1) (protein)
chain 1: B1 chain 1
chain 2: B1 chain 2
modifications: ApoE4 isoform, lecithin liposome-associated
Molecule B2 had a Kd in assay [2] of 54.9 nM.

B3: Haptoglobin (phenotype 1-1) (protein)
chain 1: B1 chain 1
chain 2: B1 chain 2
modifications: ApoE2 isoform, lecithin liposome-associated
In turn, B3 displayed a Kd in assay [3] of 58.2 nM.

The record behind these values is article PMC4122225 (2014).
